Reference: FireProtDB (doi:10.1002/pro.370)

B1: Guanyl-specific ribonuclease Sa, P05798 (parent)
chain: DVSGTVCLSALPPEATDTLNLIASDGPFPYSQDGVVFQNRESVLPTQSYGYYHEYTVITPGARTRGTRRIITGEATQEDYYTGDHYATFSLIDQTC

Variants of: B1
Conditions: Kitasatospora aureofaciens, 25 °C, Urea, CD, structure 1RGG, whole UniProt chain shown

Variant | ddG of mutation (higher = less stable) (pH 3, Glycine 30 mM) [kcal/mol] | denaturant m value (pH 3, Glycine 30 mM) [kcal/mol/M] | denaturant midpoint (higher = more stable) (pH 3, Glycine 30 mM) [M] | unfolding free energy (pH 3, Glycine 30 mM) [kcal/mol] | ddG of mutation (higher = less stable) (pH 7, MOPS 30 mM) [kcal/mol] | denaturant m value (pH 7, MOPS 30 mM) [kcal/mol/M] | denaturant midpoint (higher = more stable) (pH 7, MOPS 30 mM) [M] | unfolding free energy (pH 7, MOPS 30 mM) [kcal/mol]
R40E R63E R65A R68A R69A | -2.7 | 1.17 | 4.5 | 5.3 | 2.5 | 0.85 | 4.6 | 3.9
R40E | -0.3 | 1.52 | 1.9 | 2.9 |  |  |  | 
D1K D17K E41K D25K E74K D79K S31K | 0 | 2.37 | 1.1 | 2.6 | -0.2 | 1.15 | 5.7 | 6.6
D1K D17K E41K | -0.7 | 1.95 | 1.7 | 3.3 | 2.7 | 0.93 | 4 | 3.7
D1K D17K E41K D25K E74K | -0.9 | 1.92 | 1.8 | 3.5 | 0.7 | 1.07 | 5.3 | 5.7
D1K D17K E41K D25K E74K D79K | -0.2 | 2.25 | 1.2 | 2.7 | -0.7 | 1.03 | 6.9 | 7.1
R40E R63E | -1.1 | 1.66 | 2.2 | 3.7 |  |  |  | 
